Assay in all cases: purified protein
Holding throughout (assay type): biochemical, Camellia sinensis
What all share (conditions): apparent Km, NADPH, 0.1 M potassium phosphate pH 7.0, 30 °C

Substrate in data set [1]: O=C1c2c(O)cc(O)cc2O[C@H](c2cc(O)c(O)c(O)c2)[C@H]1O
Substrate in data set [2]: O=C1c2c(O)cc(O)cc2O[C@H](c2ccc(O)cc2)[C@H]1O
Substrate in data set [3]: O=C1c2c(O)cc(O)cc2O[C@H](c2ccc(O)c(O)c2)[C@H]1O

The text below walks through data of publication PMC9250652, “Functional analysis of the dihydroflavonol 4-reductase family of Camellia sinensis: exploiting key amino acids to reconstruct reduction activity” (Horticulture Research, 2022).

B1: CsDFRb1 (Camellia sinensis; C126T) (protein)
chain: MEVVEVKNGYGGGGGTTVCVTGASGFIGSWLVMRLLQRGYYVRATVRDPDNTDKVKHLLDLPNATTHLSLWKADLDEDGSFDDAIQGCHGVFHVATPMNFVFVMDPENEYIKPTVDGVLNVMRSCTKAKTVKRIIYTSTMATIEYQQKPPSQYDESIWTDVDFCRARKMFAWMYLVAKTEAEKAAWKFAEDNGPDLITVHPCSVIGPFITPYKPPCTSMALALITKNKAFYPMLTQGHAVHVDDVCNAHIYLFEHPQAKGRYICSSHSFTILDLASSLSKKYPEYNIQTKFEDIDESLKPIPCPSKKLLDLGFKFKYNSDECDAGDLCAEAIEACKEKGQMPSL
notes: only point mutants active
Take B1: the Michaelis-Menten constant (Km) was 47.75 µM in “purified protein [1]”, 131.09 µM in the data set “purified protein [2]” and 102.57 µM in “purified protein [3]”.

B2: CsDFRb1 (Camellia sinensis; N120S) (protein)
chain: MEVVEVKNGYGGGGGTTVCVTGASGFIGSWLVMRLLQRGYYVRATVRDPDNTDKVKHLLDLPNATTHLSLWKADLDEDGSFDDAIQGCHGVFHVATPMNFVFVMDPENEYIKPTVDGVLSVMRSCCKAKTVKRIIYTSTMATIEYQQKPPSQYDESIWTDVDFCRARKMFAWMYLVAKTEAEKAAWKFAEDNGPDLITVHPCSVIGPFITPYKPPCTSMALALITKNKAFYPMLTQGHAVHVDDVCNAHIYLFEHPQAKGRYICSSHSFTILDLASSLSKKYPEYNIQTKFEDIDESLKPIPCPSKKLLDLGFKFKYNSDECDAGDLCAEAIEACKEKGQMPSL
notes: only point mutants active
Consider B2, for which the Michaelis constant (Km) was found to be 96.58 µM in “purified protein [1]”, 148.96 µM in the data set “purified protein [2]” and 108.66 µM in “purified protein [3]”.

B3: CsDFRa (Camellia sinensis) (protein)
chain: MKDSVASATASAPGTVCVTGAAGFIGSWLVMRLLERGYIVRATVRDPANLKKVKHLLDLPKADTNLTLWKADLNEEGSFDEAIEGCSGVFHVATPMDFESKDPENEVIKPTINGVLSIIRSCTKAKTVKRLVFTSSAGTVNVQEHQQPVFDENNWSDLDFINKKKMTGWMYFVSKTLAEKAAWEAAKENNIDFISIIPTLVVGPFIMPTFPPSLITALSPITRNEGHYSIIKQGQFVHLDDLCESHIFLYERPQAEGRYICSSHDATIHDLAKLMREKWPEYNVPTEFKGIDKDLPVVSFSSKKLIGMGFEFKYSLEDMFRGAIDTCREKGLLPHSFAENPVNGNKV
B3: the Km in the data set “purified protein [1]” came out at 58.44 µM; in “purified protein [2]” it was 145.10 µM; in the data set “purified protein [3]”, 41.80 µM.

B4: CsDFRc (Camellia sinensis) (protein)
chain: MEDTKSKLQEGSAVESLTTTTYCVTGATGYIGSWLVKSLLQRGYRVHATVRNQAKTLHLLPLWGGGDRLRVFRADLHKEGSFNEAVQGCSGVFHVAASMEFEVPAKEDIDSYVRANVIEPAINGTLNLLKSCLKTPSVRRVVFTSSISTMTAKDSAGKWRSVVDESCQNPIDRVWKTKTGAWVYVLSKLLTEEAAFQFANENSIDLVSVITTTVAGPFLTSTVPTSVQVLLSPITGDSKFSRILSAVNSRMGSIALVHIEDICSAHIFLMEHDGAEGRYICSAHSSVISQLVDHLAKEHPFSNMQRLVEEEHGSVPSEISSKKLRDLGFNFKFGLEDIIHHTVSSCVDCGFLCPTVN
For B4, the Michaelis constant (Km) in “purified protein [1]” came to 105.56 µM; in the data set “purified protein [2]”, 42.31 µM; in “purified protein [3]”, 81.80 µM.
